The text below walks through data of PMC4686813.

This assay addresses Sec61β (dog (endogenous in canine pancreatic microsomes)) (UniProt P60467). Kind of assay: cross-linking; BMH on microsomes stripped of ribosomes with EDTA and high salt (EKRM); western blot with anti-Sec62; also with purified canine ribosomes added back. A general note: Immunoblotting shows a protein as a band on a membrane.
UniProt P60467, sequence (P60467 whole entry): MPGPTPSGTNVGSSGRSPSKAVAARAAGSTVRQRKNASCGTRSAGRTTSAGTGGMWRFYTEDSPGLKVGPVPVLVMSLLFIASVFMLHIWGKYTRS

In the case of “Sec62 (from UniProt P82009 1-39) (natural protein)”, the percent of Sec62 cross-linked to Sec61β is > 50%.
